Experiment [1] concerns the target 5FAM-PGC1α_144 coactivator peptide. In words: fluorescence polarisation.
Experiment [2] has as its target 5FAM-NRIP1_1068 peptide. Briefly: fluorescence polarisation.

As for “PPARγ ligand binding domain (LBD), delipidated (domain or fragment)”, the Kd came to 2.01 µM in experiment [1] and 8.24 µM in experiment [2].

These data come from paper PMC9897460.
